According to paper PMC9813972:

Target: AbTFM (A. baumannii tautomerase family member) (Acinetobacter baumannii)
Test: crystal structure; sitting-drop crystals at 296 K from 0.2 M ammonium nitrate, PEG 3350; protein in 20 mM HEPES-NaOH pH 6.8, 150 mM NaCl; space group H3, one subunit in the asymmetric unit, trimer by the crystallographic threefold axis

AbTFM (A. baumannii tautomerase family member) (natural protein)
stoichiometry N: 3
